{"source": "patent US20230002480A1", "test_in_all_cases": "cell-based or functional assay", "key": {"[1]": {"biological_target": "HIV-1 Env of pseudovirus 1006_11_C3_1601 (HIV-1)"}, "[2]": {"biological_target": "HIV-1 Env of pseudovirus 1012_11_TC21_3257 (HIV-1)"}, "[3]": {"biological_target": "HIV-1 Env of pseudovirus 1056_10_TA11_1826 (HIV-1)"}, "[4]": {"biological_target": "HIV-1 Env of pseudovirus 191084 B7-19 (HIV-1)"}, "[5]": {"biological_target": "HIV-1 Env of pseudovirus 211-9 (HIV-1)"}, "[6]": {"biological_target": "HIV-1 Env of pseudovirus 235-47 (HIV-1)"}, "[7]": {"biological_target": "HIV-1 Env of pseudovirus 249M B10 (HIV-1)"}, "[8]": {"biological_target": "HIV-1 Env of pseudovirus 263-8 (HIV-1)"}, "[9]": {"biological_target": "HIV-1 Env of pseudovirus 3103.v3.c10 (HIV-1)"}, "[10]": {"biological_target": "HIV-1 Env of pseudovirus 3301.v1.c24 (HIV-1)"}, "[11]": {"biological_target": "HIV-1 Env of pseudovirus 3365.v2.c2 (HIV-1)"}, "[12]": {"biological_target": "HIV-1 Env of pseudovirus 3817.v2.c59 (HIV-1)"}, "[13]": {"biological_target": "HIV-1 Env of pseudovirus 6041.v3.c23 (HIV-1)"}, "[14]": {"biological_target": "HIV-1 Env of pseudovirus 620345.c01 (HIV-1)"}, "[15]": {"biological_target": "HIV-1 Env of pseudovirus 6811.v7.c18 (HIV-1)"}, "[16]": {"biological_target": "HIV-1 Env of pseudovirus 9004SS_A3_4 (HIV-1)"}, "[17]": {"biological_target": "HIV-1 Env of pseudovirus 928-28 (HIV-1)"}, "[18]": {"biological_target": "HIV-1 Env of pseudovirus BJOX009000.02.4 (HIV-1)"}, "[19]": {"biological_target": "HIV-1 Env of pseudovirus C2101.c01 (HIV-1)"}, "[20]": {"biological_target": "HIV-1 Env of pseudovirus CNE19 (HIV-1)"}, "[21]": {"biological_target": "HIV-1 Env of pseudovirus CNE53 (HIV-1)"}, "[22]": {"biological_target": "HIV-1 Env of pseudovirus Ce1086_B2 (HIV-1)"}, "[23]": {"biological_target": "HIV-1 Env of pseudovirus HIV-0013095-2.11 (HIV-1)"}, "[24]": {"biological_target": "HIV-1 Env of pseudovirus HIV-16055-2.3 (HIV-1)"}, "[25]": {"biological_target": "HIV-1 Env of pseudovirus PVO.4 (HIV-1)"}, "[26]": {"biological_target": "HIV-1 Env of pseudovirus Q23.17 (HIV-1)"}, "[27]": {"biological_target": "HIV-1 Env of pseudovirus QH0692.42 (HIV-1)"}, "[28]": {"biological_target": "HIV-1 Env of pseudovirus R1166.c01 (HIV-1)"}, "[29]": {"biological_target": "HIV-1 Env of pseudovirus SC05_8C11_2344 (HIV-1)"}, "[30]": {"biological_target": "HIV-1 Env of pseudovirus T250-4 (HIV-1)"}, "[31]": {"biological_target": "HIV-1 Env of pseudovirus T278-50 (HIV-1)"}, "[32]": {"biological_target": "HIV-1 Env of pseudovirus TRJO4551.58 (HIV-1)"}, "[33]": {"biological_target": "HIV-1 Env of pseudovirus ZM135M.PL10a (HIV-1)"}, "[34]": {"biological_target": "HIV-1 Env of pseudovirus ZM197M.PB7 (HIV-1)"}, "[35]": {"biological_target": "HIV-1 Env of pseudovirus ZM233M.PB6 (HIV-1)"}, "[36]": {"biological_target": "HIV-1 Env of pseudovirus ZM53M.PB12 (HIV-1)"}}, "data": [{"substance": "3BNC117 (antibody)", "values": [{"measurement": "neutralization IC50", "setting": "[1]", "result": 0.03, "unit": "µg/mL"}, {"measurement": "neutralization IC80", "setting": "[1]", "result": 0.1, "unit": "µg/mL"}, {"measurement": "neutralization IC50", "setting": "[2]", "result": 0.02, "unit": "µg/mL"}, {"measurement": "neutralization IC80", "setting": "[2]", "result": 0.07, "unit": "µg/mL"}, {"measurement": "neutralization IC50", "setting": "[3]", "result": 0.3, "unit": "µg/mL"}, {"measurement": "neutralization IC80", "setting": "[3]", "result": 1.82, "unit": "µg/mL"}, {"measurement": "neutralization IC50", "setting": "[4]", "result": 0.07, "unit": "µg/mL"}, {"measurement": "neutralization IC80", "setting": "[4]", "result": 0.23, "unit": "µg/mL"}, {"measurement": "IC50, titer in TZM.bl cells", "setting": "[5]", "result": 0.35, "unit": "µg/mL"}, {"measurement": "IC80, titer in TZM.bl cells", "setting": "[5]", "result": 1.28, "unit": "µg/mL"}, {"measurement": "IC50, titer in TZM.bl cells", "setting": "[6]", "result": 0.03, "unit": "µg/mL"}, {"measurement": "IC80, titer in TZM.bl cells", "setting": "[6]", "result": 0.12, "unit": "µg/mL"}, {"measurement": "neutralization IC50", "setting": "[7]", "result": 0.1, "unit": "µg/mL"}, {"measurement": "neutralization IC80", "setting": "[7]", "result": 0.4, "unit": "µg/mL"}, {"measurement": "neutralization IC50", "setting": "[8]", "result": 0.005, "unit": "µg/mL"}, {"measurement": "neutralization IC80", "setting": "[8]", "result": 0.04, "unit": "µg/mL"}, {"measurement": "IC50, titer in TZM.bl cells", "setting": "[9]", "result": 0.22, "unit": "µg/mL"}, {"measurement": "IC80, titer in TZM.bl cells", "setting": "[9]", "result": 0.85, "unit": "µg/mL"}, {"measurement": "IC50, titer in TZM.bl cells", "setting": "[10]", "result": 0.01, "unit": "µg/mL"}, {"measurement": "IC80, titer in TZM.bl cells", "setting": "[10]", "result": 0.05, "unit": "µg/mL"}, {"measurement": "neutralization IC50", "setting": "[11]", "result": 0.03, "unit": "µg/mL"}, {"measurement": "neutralization IC80", "setting": "[11]", "result": 0.1, "unit": "µg/mL"}, {"measurement": "IC50, titer in TZM.bl cells", "setting": "[12]", "result": 0.15, "unit": "µg/mL"}, {"measurement": "IC80, titer in TZM.bl cells", "setting": "[12]", "result": 0.52, "unit": "µg/mL"}, {"measurement": "IC50, titer in TZM.bl cells", "setting": "[13]", "result": 0.01, "unit": "µg/mL"}, {"measurement": "IC80, titer in TZM.bl cells", "setting": "[13]", "result": 0.07, "unit": "µg/mL"}, {"measurement": "IC50, titer in TZM.bl cells", "setting": "[14]", "result": "> 15", "unit": "µg/mL"}, {"measurement": "IC80, titer in TZM.bl cells", "setting": "[14]", "result": "> 15", "unit": "µg/mL"}, {"measurement": "IC50, titer in TZM.bl cells", "setting": "[15]", "result": 0.03, "unit": "µg/mL"}, {"measurement": "IC80, titer in TZM.bl cells", "setting": "[15]", "result": 0.17, "unit": "µg/mL"}, {"measurement": "neutralization IC50", "setting": "[16]", "result": 0.07, "unit": "µg/mL"}, {"measurement": "neutralization IC80", "setting": "[16]", "result": 0.18, "unit": "µg/mL"}, {"measurement": "neutralization IC50", "setting": "[17]", "result": 0.15, "unit": "µg/mL"}, {"measurement": "neutralization IC80", "setting": "[17]", "result": 0.55, "unit": "µg/mL"}, {"measurement": "IC50, titer in TZM.bl cells", "setting": "[18]", "result": 0.4, "unit": "µg/mL"}, {"measurement": "IC80, titer in TZM.bl cells", "setting": "[18]", "result": 1.79, "unit": "µg/mL"}, {"measurement": "IC50, titer in TZM.bl cells", "setting": "[19]", "result": 0.05, "unit": "µg/mL"}, {"measurement": "IC80, titer in TZM.bl cells", "setting": "[19]", "result": 0.31, "unit": "µg/mL"}, {"measurement": "neutralization IC50", "setting": "[20]", "result": 0.02, "unit": "µg/mL"}, {"measurement": "neutralization IC80", "setting": "[20]", "result": 0.08, "unit": "µg/mL"}, {"measurement": "neutralization IC50", "setting": "[21]", "result": 0.08, "unit": "µg/mL"}, {"measurement": "neutralization IC80", "setting": "[21]", "result": 0.99, "unit": "µg/mL"}, {"measurement": "neutralization IC50", "setting": "[22]", "result": 0.09, "unit": "µg/mL"}, {"measurement": "neutralization IC80", "setting": "[22]", "result": 0.31, "unit": "µg/mL"}, {"measurement": "neutralization IC50", "setting": "[23]", "result": 0.33, "unit": "µg/mL"}, {"measurement": "neutralization IC80", "setting": "[23]", "result": 2.53, "unit": "µg/mL"}, {"measurement": "neutralization IC50", "setting": "[24]", "result": 5.6, "unit": "µg/mL"}, {"measurement": "neutralization IC80", "setting": "[24]", "result": "> 50", "unit": "µg/mL"}, {"measurement": "neutralization IC50", "setting": "[25]", "result": "< 0.09", "unit": "µg/mL"}, {"measurement": "neutralization IC80", "setting": "[25]", "result": 0.19, "unit": "µg/mL"}, {"measurement": "neutralization IC50", "setting": "[26]", "result": 0.005, "unit": "µg/mL"}, {"measurement": "neutralization IC80", "setting": "[26]", "result": 0.02, "unit": "µg/mL"}, {"measurement": "neutralization IC50", "setting": "[27]", "result": 0.13, "unit": "µg/mL"}, {"measurement": "neutralization IC80", "setting": "[27]", "result": 0.49, "unit": "µg/mL"}, {"measurement": "IC50, titer in TZM.bl cells", "setting": "[28]", "result": 0.17, "unit": "µg/mL"}, {"measurement": "IC80, titer in TZM.bl cells", "setting": "[28]", "result": 0.64, "unit": "µg/mL"}, {"measurement": "neutralization IC50", "setting": "[29]", "result": 0.15, "unit": "µg/mL"}, {"measurement": "neutralization IC80", "setting": "[29]", "result": 0.51, "unit": "µg/mL"}, {"measurement": "IC50, titer in TZM.bl cells", "setting": "[30]", "result": "> 15", "unit": "µg/mL"}, {"measurement": "IC80, titer in TZM.bl cells", "setting": "[30]", "result": "> 15", "unit": "µg/mL"}, {"measurement": "IC50, titer in TZM.bl cells", "setting": "[31]", "result": "> 15", "unit": "µg/mL"}, {"measurement": "IC80, titer in TZM.bl cells", "setting": "[31]", "result": "> 15", "unit": "µg/mL"}, {"measurement": "neutralization IC50", "setting": "[32]", "result": 0.05, "unit": "µg/mL"}, {"measurement": "neutralization IC80", "setting": "[32]", "result": 0.19, "unit": "µg/mL"}, {"measurement": "neutralization IC50", "setting": "[33]", "result": 0.03, "unit": "µg/mL"}, {"measurement": "neutralization IC80", "setting": "[33]", "result": 0.13, "unit": "µg/mL"}, {"measurement": "neutralization IC50", "setting": "[34]", "result": 0.22, "unit": "µg/mL"}, {"measurement": "neutralization IC80", "setting": "[34]", "result": 1.03, "unit": "µg/mL"}, {"measurement": "neutralization IC50", "setting": "[35]", "result": 0.13, "unit": "µg/mL"}, {"measurement": "neutralization IC80", "setting": "[35]", "result": 0.85, "unit": "µg/mL"}, {"measurement": "neutralization IC50", "setting": "[36]", "result": 0.21, "unit": "µg/mL"}, {"measurement": "neutralization IC80", "setting": "[36]", "result": 0.85, "unit": "µg/mL"}]}]}
